The target of the assay is recombinant human IL-18 (human) (UniProt Q14116). The experiment in a line: free IL-18 ECL immunoassay: recombinant human IL-18 captured by plate-coated Antibody 12GL, biotinylated detection antibody; rhIL-18BP titrated as competitor of the capture.

With “recombinant IL-18BP (from UniProt O95998 31-194)”, the IC50 (read off the curve) stood at 3 ng/mL.

For the origin of these results see patent publication US20140004128A1.
